The text below walks through data of patent US20170224620A1 (Pfizer, published 2017).

B1: P2-15 (peptide)
peptide: H-DPCTWEVWGRECGG[Pra]G-NH2
modifications: disulfide 3-12
SMILES: C#CC[C@H](NC(=O)CNC(=O)CNC(=O)[C@@H]1CSSC[C@H](NC(=O)[C@@H]2CCCN2C(=O)[C@@H](N)CC(=O)O)C(=O)N[C@@H]([C@@H](C)O)C(=O)N[C@@H](Cc2c[nH]c3ccccc23)C(=O)N[C@@H](CCC(=O)O)C(=O)N[C@@H](C(C)C)C(=O)N[C@@H](Cc2c[nH]c3ccccc23)C(=O)NCC(=O)N[C@@H](CCCNC(=N)N)C(=O)N[C@@H](CCC(=O)O)C(=O)N1)C(=O)NCC(N)=O
B2: P2-18 (peptide)
peptide: H-DACTWEVWGRECGG[Pra]G-NH2
modifications: disulfide 3-12
SMILES: C#CC[C@H](NC(=O)CNC(=O)CNC(=O)[C@@H]1CSSC[C@H](NC(=O)[C@H](C)NC(=O)[C@@H](N)CC(=O)O)C(=O)N[C@@H]([C@@H](C)O)C(=O)N[C@@H](Cc2c[nH]c3ccccc23)C(=O)N[C@@H](CCC(=O)O)C(=O)N[C@@H](C(C)C)C(=O)N[C@@H](Cc2c[nH]c3ccccc23)C(=O)NCC(=O)N[C@@H](CCCNC(=N)N)C(=O)N[C@@H](CCC(=O)O)C(=O)N1)C(=O)NCC(N)=O
B3: P2-20 (truncation, Table 12) (peptide)
peptide: Ac-ACTWEVWGRECGG[Pra]G-NH2
modifications: disulfide 2-11
SMILES: C#CC[C@H](NC(=O)CNC(=O)CNC(=O)[C@@H]1CSSC[C@H](NC(=O)[C@H](C)NC(C)=O)C(=O)N[C@@H]([C@@H](C)O)C(=O)N[C@@H](Cc2c[nH]c3ccccc23)C(=O)N[C@@H](CCC(=O)O)C(=O)N[C@@H](C(C)C)C(=O)N[C@@H](Cc2c[nH]c3ccccc23)C(=O)NCC(=O)N[C@@H](CCCNC(=N)N)C(=O)N[C@@H](CCC(=O)O)C(=O)N1)C(=O)NCC(N)=O
B4: P2-17 (peptide)
peptide: H-CTWEVWGRECGG[Pra]G-NH2
modifications: disulfide 1-10
SMILES: C#CC[C@H](NC(=O)CNC(=O)CNC(=O)[C@@H]1CSSC[C@H](N)C(=O)N[C@@H]([C@@H](C)O)C(=O)N[C@@H](Cc2c[nH]c3ccccc23)C(=O)N[C@@H](CCC(=O)O)C(=O)N[C@@H](C(C)C)C(=O)N[C@@H](Cc2c[nH]c3ccccc23)C(=O)NCC(=O)N[C@@H](CCCNC(=N)N)C(=O)N[C@@H](CCC(=O)O)C(=O)N1)C(=O)NCC(N)=O
B5: P2-21 (peptide)
peptide: H-[Pra]ACTWEVWGREC-NH2
modifications: disulfide 3-12
SMILES: C#CC[C@H](N)C(=O)N[C@@H](C)C(=O)N[C@H]1CSSC[C@@H](C(N)=O)NC(=O)[C@H](CCC(=O)O)NC(=O)[C@H](CCCNC(=N)N)NC(=O)CNC(=O)[C@H](Cc2c[nH]c3ccccc23)NC(=O)[C@H](C(C)C)NC(=O)[C@H](CCC(=O)O)NC(=O)[C@H](Cc2c[nH]c3ccccc23)NC(=O)[C@H]([C@@H](C)O)NC1=O
B6: P2-19 (peptide)
peptide: H-ACTWEVWGRECGG[Pra]G-NH2
modifications: disulfide 2-11
SMILES: C#CC[C@H](NC(=O)CNC(=O)CNC(=O)[C@@H]1CSSC[C@H](NC(=O)[C@H](C)N)C(=O)N[C@@H]([C@@H](C)O)C(=O)N[C@@H](Cc2c[nH]c3ccccc23)C(=O)N[C@@H](CCC(=O)O)C(=O)N[C@@H](C(C)C)C(=O)N[C@@H](Cc2c[nH]c3ccccc23)C(=O)NCC(=O)N[C@@H](CCCNC(=N)N)C(=O)N[C@@H](CCC(=O)O)C(=O)N1)C(=O)NCC(N)=O
B7: P2-50 (peptide)
peptide: H-DPCTWEVWGRE[hCys]LQGG[Pra]G-NH2
modifications: disulfide 3-12
SMILES: C#CC[C@H](NC(=O)CNC(=O)CNC(=O)[C@H](CCC(N)=O)NC(=O)[C@H](CC(C)C)NC(=O)[C@@H]1CCSSC[C@H](NC(=O)[C@@H]2CCCN2C(=O)[C@@H](N)CC(=O)O)C(=O)N[C@@H]([C@@H](C)O)C(=O)N[C@@H](Cc2c[nH]c3ccccc23)C(=O)N[C@@H](CCC(=O)O)C(=O)N[C@@H](C(C)C)C(=O)N[C@@H](Cc2c[nH]c3ccccc23)C(=O)NCC(=O)N[C@@H](CCCNC(=N)N)C(=O)N[C@@H](CCC(=O)O)C(=O)N1)C(=O)NCC(N)=O
B8: P2-25 (peptide)
peptide: H-DPCVWEVWGRECLQGG[Pra]G-NH2
modifications: disulfide 3-12
SMILES: C#CC[C@H](NC(=O)CNC(=O)CNC(=O)[C@H](CCC(N)=O)NC(=O)[C@H](CC(C)C)NC(=O)[C@@H]1CSSC[C@H](NC(=O)[C@@H]2CCCN2C(=O)[C@@H](N)CC(=O)O)C(=O)N[C@@H](C(C)C)C(=O)N[C@@H](Cc2c[nH]c3ccccc23)C(=O)N[C@@H](CCC(=O)O)C(=O)N[C@@H](C(C)C)C(=O)N[C@@H](Cc2c[nH]c3ccccc23)C(=O)NCC(=O)N[C@@H](CCCNC(=N)N)C(=O)N[C@@H](CCC(=O)O)C(=O)N1)C(=O)NCC(N)=O
B9: P2-26 (peptide)
peptide: H-DPCSWEVWGRECLQGG[Pra]G-NH2
modifications: disulfide 3-12
SMILES: C#CC[C@H](NC(=O)CNC(=O)CNC(=O)[C@H](CCC(N)=O)NC(=O)[C@H](CC(C)C)NC(=O)[C@@H]1CSSC[C@H](NC(=O)[C@@H]2CCCN2C(=O)[C@@H](N)CC(=O)O)C(=O)N[C@@H](CO)C(=O)N[C@@H](Cc2c[nH]c3ccccc23)C(=O)N[C@@H](CCC(=O)O)C(=O)N[C@@H](C(C)C)C(=O)N[C@@H](Cc2c[nH]c3ccccc23)C(=O)NCC(=O)N[C@@H](CCCNC(=N)N)C(=O)N[C@@H](CCC(=O)O)C(=O)N1)C(=O)NCC(N)=O
B10: P2-36 (peptide)
peptide: H-DPCTWEIWGRECLQGG[Pra]G-NH2
modifications: disulfide 3-12
SMILES: C#CC[C@H](NC(=O)CNC(=O)CNC(=O)[C@H](CCC(N)=O)NC(=O)[C@H](CC(C)C)NC(=O)[C@@H]1CSSC[C@H](NC(=O)[C@@H]2CCCN2C(=O)[C@@H](N)CC(=O)O)C(=O)N[C@@H]([C@@H](C)O)C(=O)N[C@@H](Cc2c[nH]c3ccccc23)C(=O)N[C@@H](CCC(=O)O)C(=O)N[C@@H]([C@@H](C)CC)C(=O)N[C@@H](Cc2c[nH]c3ccccc23)C(=O)NCC(=O)N[C@@H](CCCNC(=N)N)C(=O)N[C@@H](CCC(=O)O)C(=O)N1)C(=O)NCC(N)=O
B11: P2-32 (peptide)
peptide: H-DPCTWRVWGRECLQGG[Pra]G-NH2
modifications: disulfide 3-12
SMILES: C#CC[C@H](NC(=O)CNC(=O)CNC(=O)[C@H](CCC(N)=O)NC(=O)[C@H](CC(C)C)NC(=O)[C@@H]1CSSC[C@H](NC(=O)[C@@H]2CCCN2C(=O)[C@@H](N)CC(=O)O)C(=O)N[C@@H]([C@@H](C)O)C(=O)N[C@@H](Cc2c[nH]c3ccccc23)C(=O)N[C@@H](CCCNC(=N)N)C(=O)N[C@@H](C(C)C)C(=O)N[C@@H](Cc2c[nH]c3ccccc23)C(=O)NCC(=O)N[C@@H](CCCNC(=N)N)C(=O)N[C@@H](CCC(=O)O)C(=O)N1)C(=O)NCC(N)=O
B12: P2-33 (peptide)
peptide: H-DPCTWGVWGRECLQGG[Pra]G-NH2
modifications: disulfide 3-12
SMILES: C#CC[C@H](NC(=O)CNC(=O)CNC(=O)[C@H](CCC(N)=O)NC(=O)[C@H](CC(C)C)NC(=O)[C@@H]1CSSC[C@H](NC(=O)[C@@H]2CCCN2C(=O)[C@@H](N)CC(=O)O)C(=O)N[C@@H]([C@@H](C)O)C(=O)N[C@@H](Cc2c[nH]c3ccccc23)C(=O)NCC(=O)N[C@@H](C(C)C)C(=O)N[C@@H](Cc2c[nH]c3ccccc23)C(=O)NCC(=O)N[C@@H](CCCNC(=N)N)C(=O)N[C@@H](CCC(=O)O)C(=O)N1)C(=O)NCC(N)=O
B13: P2-16 (peptide)
peptide: H-CTWEVWGRECLQGG[Pra]G-NH2
modifications: disulfide 1-10
SMILES: C#CC[C@H](NC(=O)CNC(=O)CNC(=O)[C@H](CCC(N)=O)NC(=O)[C@H](CC(C)C)NC(=O)[C@@H]1CSSC[C@H](N)C(=O)N[C@@H]([C@@H](C)O)C(=O)N[C@@H](Cc2c[nH]c3ccccc23)C(=O)N[C@@H](CCC(=O)O)C(=O)N[C@@H](C(C)C)C(=O)N[C@@H](Cc2c[nH]c3ccccc23)C(=O)NCC(=O)N[C@@H](CCCNC(=N)N)C(=O)N[C@@H](CCC(=O)O)C(=O)N1)C(=O)NCC(N)=O
B14: P2-23 (peptide)
peptide: H-[Pra]CTWEVWGREC-NH2
modifications: disulfide 2-11
SMILES: C#CC[C@H](N)C(=O)N[C@H]1CSSC[C@@H](C(N)=O)NC(=O)[C@H](CCC(=O)O)NC(=O)[C@H](CCCNC(=N)N)NC(=O)CNC(=O)[C@H](Cc2c[nH]c3ccccc23)NC(=O)[C@H](C(C)C)NC(=O)[C@H](CCC(=O)O)NC(=O)[C@H](Cc2c[nH]c3ccccc23)NC(=O)[C@H]([C@@H](C)O)NC1=O

Bridges are numbered along the chain shown (N, C = ends). [ ]: non-standard residue; d: D form. hCys = N[C@@H](CCS)C(=O)O; Pra = C#CC[C@H](N)C(=O)O

This assay has as its target T1, Fc tagged recombinant human EGFR (rhEGFR-Fc, R&D systems, Cat#344-ER-050) (human, UniProt P00533 25-645).
T1 construct: Bought protein; also called apo-EGFR; not shown: Fc tag
Nature of the assay: SPR. The method, then:
Surface plasmon resonance (SPR) binding studies were carried out on a Biacore T200 instrument (GE Healthcare). […] The contact time and resulting amount of rhEGFR-Fc capture was varied based on the nature of the analyte, namely whether it was a peptide or nanoparticle.
Peptide binding assays were carried out in 10 mM PBS buffer supplemented with 0.05% surfactant P20 and 5% DMSO by volume, at 25° C. Peptides were injected over the rhEGFR-Fc surface for 60 s, followed by dissociation (buffer injection) for 60 s and regeneration with a 10 s pulse of 3M MgCl₂. A fresh rhEGFR-Fc surface was generated for each concentration of each peptide tested. Peptide binding data was analyzed by fitting to a 1:1 Langmuir kinetic model to obtain the on-rate (kₐ), off-rate (kd) and/or equilibrium binding constant (KD) of the interaction.
(In general: In SPR one partner is held on a chip, and binding of the other changes the refractive index at the surface.)
As to B1, the “KD/P2 KD” value turned out to be 0.9 ratio. Same read-out and setting: in the case of B2 it was 1.6 ratio. For the molecule B3, the “KD/P2 KD” value was found to be 3 ratio. Still for that read-out and setting: in the case of B4 it was 0.4 ratio. In the case of B5, the “KD/P2 KD” value amounted to 6.7 ratio. Still for that read-out and setting: in the case of B6 it was 2.4 ratio. With B7, the “Result (affinity relative to KD of P2)” value was determined as 4.56 ratio. For B8, the “KD/P2 KD” value was 1.1 ratio.

In the case of B9, the “KD/P2 KD” value came to 1.68 ratio. H-DPCTFEVWGRECLQGG[Pra]G-NH2 (disulfide 3-12) [P2-29]: the “KD/P2 KD” value was found to be 9.24 ratio. Consider B10, for which the “KD/P2 KD” value amounted to 3.48 ratio. Still for that read-out and setting: in the case of B11 it was 1.21 ratio; in that of B12, 42.7 ratio; in that of B13, 2 ratio. The same measure, in the same setting: in the case of B14 it was 4.5 ratio.
